Experiments:
Test in all cases: ITC; Vps4 MIT domain (3 uM in PBS) in the cell, titrated with 19 injections of 10 ul of Vps2/24/46 or Vps20/32/60 (33 uM in PBS) at 2-min intervals; 25°C; ITC200; fits: One Set of Sites or Sequential Binding Sites
[1] = target: Heimdallarchaeota_LC_3 Vps4 MIT domain (Heimdallarchaeota_LC_3)
[2] = target: Lokiarchaeum_GC14_75 Vps4 MIT domain (Lokiarchaeum_GC14_75)
[3] = target: Odinarchaeota_LCB_4 Vps4 MIT domain (Odinarchaeota_LCB_4)

Substance	dH1 (Sequential Binding Sites, site 1) [1]	dH2 (Sequential Binding Sites, site 2) [1]	dH [3]	other results
Heimdallarchaeota_LC_3 Vps2/24/46 (natural protein)	-473 kcal/mol	931 kcal/mol		
Heimdallarchaeota_LC_3 Vps20/32/60 (natural protein)	2780 kcal/mol	-2310 kcal/mol		
Lokiarchaeum_GC14_75 Vps2/24/46 (natural protein)				dH1 (Sequential Binding Sites, site 1) [2]: -121 kcal/mol; dH2 (Sequential Binding Sites, site 2) [2]: 422 kcal/mol
Lokiarchaeum_GC14_75 Vps20/32/60 (natural protein)				dH [2]: 1420 kcal/mol
Odinarchaeota_LCB_4 Vps2/24/46 (natural protein)			392 kcal/mol	
Odinarchaeota_LCB_4 Vps20/32/60 (natural protein)			331 kcal/mol	

Source: paper PMC7240154
